The values that follow come from patent US20210371506A1 (JIANGSU HENGRUI MEDICINE, published 2021).

For assay [1], the target named is T1, Aβ1-42 monomer (human).
T1 construct: Synthetic peptide: Sigma A9810 dissolved in DMSO for Biacore; GenScript RP10017 in NaOH/PBS for the ThT assay; also called human Aβ1-42
Nature of the assay: SPR, Biacore T200; IgG captured on Protein A chip, Aβ1-42 monomer flowed over. As for the experimental part:
(§1) The affinity of an antibody to Aβ1-42 monomer was detected by capturing antibody on the chip. IgG was affinity-captured onto Protein A biosensing chip, and then the antigen […] monomer was allowed to flow through the surface of the chip. The reaction signals were detected in real time with Biacore T200 instrument to generate a binding and dissociation curve. At the end of each experimental cycle, after the dissociation was completed, the biosensor chip was washed and regenerated with 10 mM Glycine-HCl (pH1.5).

For assay [2], the target named is T1, Aβ1-42 monomer. Put plainly: cell-based or functional assay.
The target in assay [3] is T2, Aβ1-42 fibrils (human).
T2 construct: Synthetic Aβ1-42 polypeptide (GL Biochem) made into fibrils in vitro (DMSO, diluted in water, 37 °C for 10 days); In the phagocytosis assays the fibrils were fluorescence (FITC) labeled; also called Aβ fibrils; Abeta fibrils
Put plainly: SPR, Biacore T200; Aβ1-42 fibrils amine-coupled to CM5 chip, antibody flowed over. As to the method: (§2) The affinity of an antibody to Aβ1-42 fibrils was detected by the method of amino coupling. Aβ1-42 fibrils was coupled to CM5 biosensing chip (200 RU), and then the antibody molecules were allowed to flow through the surface of the chip. The reaction signals were detected in real time with Biacore T200 instrument to generate a binding and dissociation curve. At the end of each experimental cycle, after the dissociation was completed, the biosensor chip was washed and regenerated with 10 mM Glycine-HCl (pH 1.5). The positive antibody, Aducanumab, was prepared according to the sequence information about Aducanumab released by WHO (see WHO Drug Information, Vol. 28, No. 3, 2014), and the preparation method was described in Example 4 of the present disclosure.

For assay [4], the target named is T2, Aβ1-42 fibrils. Put plainly: SPR, Biacore T200; Aβ1-42 fibrils on CM5 chip; reference Aducanumab. As for the experimental part:
as §2
Background: In SPR one partner is held on a chip, and binding of the other changes the refractive index at the surface.

For assay [5], the target named is T1, Aβ1-42 monomer. Put plainly: SPR, Biacore T200; IgG on Protein A chip, Aβ1-42 monomer as analyte; reference Aducanumab. As to the method: as §1

T2 sequence (peptide, as listed by the source): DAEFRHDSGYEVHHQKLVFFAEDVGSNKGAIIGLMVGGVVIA
T1 sequence (peptide, as listed by the source): as above

B1: HAB-5101 (antibody, human IgG1, kappa, V domains shown)
VH: QVTLKESGPALVKPTQTLTLTCTFSGFSLSTSGMGVSWIRQPPGKALEWLAHIYWDDVSLYNPSLKSRLTISKDTSKNQVVLTMTNMDPVDTATYYCARRRIITVVDAMDYWGQGTTVTVSS
VL: DVVMTQTPLSLPVTPGEPASISCRSSQSIVHSNGNTYLEWYLQKPGQSPKLLIYKVSNRFSGVPDRFSGSGSGTDFTLKISRVEAEDVGVYYCSQGSRVPPTFGGGTKVEIKR
For B1, the Kd (as a rule, the free concentration of one partner at which half of the binding sites on the other are occupied at equilibrium, for simple one-to-one binding) in assay [1] came out at 0.333 µM; in assay [3], 0.00122 µM. In addition, the “IC50 (read off the curve)” value in assay [2] is approximately 0.8 µM.

B2: HAB-9001 (antibody, human IgG1, kappa, V domains shown)
VH: QVTLKESGPALVKPTQTLTLTCTFSGFSLSTFGMGVGWIRQPPGKALEWLAHIWWDDNKYYNPALKSRLTISKDTSKNQVVLTMTNMDPVDTATYYCARRGFHLGSRGDYFDHWGQGTTVTVSS
VL: DVVMTQTPLSLPVTPGEPASISCRSSQSIVHSNGNTYLEWYLQKPGQSPQLLIYKVSNRFSGVPDRFSGSGSGTDFTLKISRVEAEDVGVYYCFQGSRVPLTFGQGTKLEIKR
Take B2: the Kd in assay [1] came to 0.0279 µM; in assay [3], 0.000213 µM. Besides, the “affinity relative to Aducanumab” value in assay [4] and in assay [5] was 2 orders of magnitude in each case.

B3: HAB-2401 (antibody, human IgG1, kappa, V domains shown)
VH: EVQLVQSGAEVKKPGASVKVSCKVSGYTLTNTYMHWVRQAPGKGLEWMGRIDPTNGNTKYAPKFKDRVTMTADTSTDTAYMELSSLRSEDTAVYYCARRVYYYDSTYNYWGKGTTVTVSS
VL: DIQMTQSPSSLSASVGDRVTITCKSSQSLLNSGNQKNYLTWYQQKPGKVPKLLIYWASTRESGVPSRFSGSGSGTDFTLTISSLQPEDVATYYCQNDYNYPLTFGGGTKVEIKR
For the molecule B3, the results for the Kd in assay [1] and in assay [3] were 0.229 µM and 0.0117 µM, respectively.
